Assay results from article PMC5299547 (Analytical Chemistry, 2017).

Molecular target: T1, tryptophan synthase, beta subunit (Salmonella typhimurium, UniProt P0A2K1 2-397)
T1 sequence: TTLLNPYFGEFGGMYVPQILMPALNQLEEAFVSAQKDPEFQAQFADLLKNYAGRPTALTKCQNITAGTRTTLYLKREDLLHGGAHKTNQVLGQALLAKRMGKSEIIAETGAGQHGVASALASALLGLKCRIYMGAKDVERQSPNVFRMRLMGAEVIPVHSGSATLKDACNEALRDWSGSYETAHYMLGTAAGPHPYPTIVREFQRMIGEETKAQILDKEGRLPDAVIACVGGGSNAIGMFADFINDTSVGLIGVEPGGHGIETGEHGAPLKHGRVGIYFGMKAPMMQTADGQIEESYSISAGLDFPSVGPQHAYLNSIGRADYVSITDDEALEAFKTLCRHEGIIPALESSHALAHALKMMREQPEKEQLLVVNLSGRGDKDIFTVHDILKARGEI
Assay: native MS; 10 μM purified complex buffer-exchanged in 200 mM ammonium acetate, electrosprayed (Synapt G2Si); subcomplexes generated in solution with 10–40% methanol, DMSO or acetonitrile
Details: both partners purified

B1: tryptophan synthase, alpha subunit (natural protein, Salmonella typhimurium)
chain: MERYENLFAQLNDRREGAFVPFVTLGDPGIEQSLKIIDTLIDAGADALELGVPFSDPLADGPTIQNANLRAFAAGVTPAQCFEMLALIREKHPTIPIGLLMYANLVFNNGIDAFYARCEQVGVDSVLVADVPVEESAPFRQAALRHNIAPIFICPPNADDDLLRQVASYGRGYTYLLSRSGVTGAENRGALPLHHLIEKLKEYHAAPALQGFGISSPEQVSAAVRAGAAGAISGSAIVKIIEKNLASPKQMLAELRSFVSAMKAASRA
B1: binds.
